Measurements published in patent US20240368301A1.

Columns and labels:
[1] = molecular target: SIRPα V2-his (made by transient transfection of HEK293F cells according to SEQ ID NO:38) (Homo sapiens (Human)) (UniProt P78324); test: competition ELISA; coated SIRPα-V2-his, biotin-CD47 as competitor
[2] = molecular target: SIRPα V2-his (made by transient transfection of HEK293F cells according to SEQ ID NO:38) (Homo sapiens (Human)) (UniProt P78324); test: BLI (Octet RED 96), His-tagged antigen on Ni-NTA sensor, antibody in solution

SIRPα V2-his (made by transient transfection of HEK293F cells according to SEQ ID NO:38) (Homo sapiens (Human)), sequence (P78324 other isoform, or with tags, fused parts or gaps limits assumed): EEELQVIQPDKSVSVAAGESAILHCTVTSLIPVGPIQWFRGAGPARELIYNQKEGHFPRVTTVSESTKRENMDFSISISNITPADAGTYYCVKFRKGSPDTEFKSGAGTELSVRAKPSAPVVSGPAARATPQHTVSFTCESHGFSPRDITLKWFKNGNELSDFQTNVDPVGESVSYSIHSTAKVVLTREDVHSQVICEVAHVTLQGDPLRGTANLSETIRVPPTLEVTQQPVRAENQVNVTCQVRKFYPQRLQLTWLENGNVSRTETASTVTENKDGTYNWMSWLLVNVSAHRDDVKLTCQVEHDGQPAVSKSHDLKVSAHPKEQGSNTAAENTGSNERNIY

IC50 [1]: 9.32 nM
Kd [2]: 0.898 nM
koff [2]: 0.000327 s⁻¹
kon [2]: 364000 M⁻¹ s⁻¹
B1: AD4-12 (antibody, V domains shown)
VH: EVQLEESGPGLVAPSQSLSITCTVSGFSLTGYGVNWVRQPPGKGLEWLGIIWGDGSTDYNSALKSRLSISKDNSKSQVFLKMNSLQSDDTARYYCARAGKMDYWGQGTSVTVSS
VL: DIVLTQSPASLAVSLGQGATISCRASESVDSYGNSFMHWYQQKPGQPPKPLIYLASNLESGVPARFSGSGSRTDFTLTIDPVEADDAATYYCQQNNEYPWTFGGGTKLEIK
